This data set concerns the target T1, FOXC2 DBD (Homo sapiens, UniProt Q99958 60-198).
T1 sequence: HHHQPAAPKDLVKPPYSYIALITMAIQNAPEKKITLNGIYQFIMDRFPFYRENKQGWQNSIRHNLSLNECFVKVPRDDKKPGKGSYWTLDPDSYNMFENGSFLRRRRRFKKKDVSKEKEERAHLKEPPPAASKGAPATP
The data set can be described thus: EMSA. Background: A gel shift assay detects complexes by their altered migration in electrophoresis.

B1: 16 bp EMSA DNA (dsDNA)
DNA 1: CAAGGTAAACAAACCA
DNA 2: TGGTTTGTTTACCTTG
As to B1, binding was put at a Kd of 26.4 µM.

Source of the values: article PMC6648891.
